According to the supplement of paper PMC10567573:

B1: C9orf25 (parent)
chain: LARKGSLKNGSMGSPVNQQPKKNN
B2: IKZF1 (parent)
chain: HIKLHSGEKPFKCHLCNYACRRRD

Variants of: B1
Experiment: protein stability index of a GFP-peptide fusion (GPS, HEK-293T) (PSI 1-6); higher = more stable
Conditions: c terminus: a fixed tail appended
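Further: lentivirally expressed fusions sorted by FACS into six bins by GFP to DsRed ratio, PSI derived from sequencing read proportions per bin multiplied by bin number.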

Row | Variant | protein stability index
1 | LAGKGSLKNGSMGSPVNQQPKKNN [R3G] | 5.02
2 | LAAKGSLKNGSMGSPVNQQPKKNN [R3A] | 5.05
3 | LAIKGSLKNGSMGSPVNQQPKKNN [R3I] | 4.58
4 | LAPKGSLKNGSMGSPVNQQPKKNN [R3P] | 5.03
5 | LAYKGSLKNGSMGSPVNQQPKKNN [R3Y] | 4.73
6 | LADKGSLKNGSMGSPVNQQPKKNN [R3D] | 5.2
7 | LAWKGSLKNGSMGSPVNQQPKKNN [R3W] | 4.14
8 | LAHKGSLKNGSMGSPVNQQPKKNN [R3H] | 4.85
9 | LATKGSLKNGSMGSPVNQQPKKNN [R3T] | 4.85
10 | LAKKGSLKNGSMGSPVNQQPKKNN [R3K] | 4.33
11 | LAQKGSLKNGSMGSPVNQQPKKNN [R3Q] | 4.99
12 | LAFKGSLKNGSMGSPVNQQPKKNN [R3F] | 4.54
13 | LAEKGSLKNGSMGSPVNQQPKKNN [R3E] | 4.69
14 | LAVKGSLKNGSMGSPVNQQPKKNN [R3V] | 4.85
15 | LACKGSLKNGSMGSPVNQQPKKNN [R3C] | 4.85
16 | LAMKGSLKNGSMGSPVNQQPKKNN [R3M] | 4.85
17 | LANKGSLKNGSMGSPVNQQPKKNN [R3N] | 4.96
18 | LASKGSLKNGSMGSPVNQQPKKNN [R3S] | 4.67
19 | LALKGSLKNGSMGSPVNQQPKKNN [R3L] | 4.41
20 | TARKGSLKNGSMGSPVNQQPKKNN [L1T] | 4.31
21 | HARKGSLKNGSMGSPVNQQPKKNN [L1H] | 4.95
22 | PARKGSLKNGSMGSPVNQQPKKNN [L1P] | 4.76
23 | NARKGSLKNGSMGSPVNQQPKKNN [L1N] | 5.07
24 | VARKGSLKNGSMGSPVNQQPKKNN [L1V] | 4.92
25 | GARKGSLKNGSMGSPVNQQPKKNN [L1G] | 5.15

Row | Variant | protein stability index
26 | WARKGSLKNGSMGSPVNQQPKKNN [L1W] | 4.3
27 | AARKGSLKNGSMGSPVNQQPKKNN [L1A] | 5.34
28 | CARKGSLKNGSMGSPVNQQPKKNN [L1C] | 4.32
29 | QARKGSLKNGSMGSPVNQQPKKNN [L1Q] | 4.85
30 | KARKGSLKNGSMGSPVNQQPKKNN [L1K] | 4.76
31 | MARKGSLKNGSMGSPVNQQPKKNN [L1M] | 4.89
32 | SARKGSLKNGSMGSPVNQQPKKNN [L1S] | 5.53
33 | IARKGSLKNGSMGSPVNQQPKKNN [L1I] | 4.66
34 | EARKGSLKNGSMGSPVNQQPKKNN [L1E] | 5.35
35 | FARKGSLKNGSMGSPVNQQPKKNN [L1F] | 3.96
36 | RARKGSLKNGSMGSPVNQQPKKNN [L1R] | 4.81
37 | YARKGSLKNGSMGSPVNQQPKKNN [L1Y] | 3.77
38 | DARKGSLKNGSMGSPVNQQPKKNN [L1D] | 5.07
39 | LARQGSLKNGSMGSPVNQQPKKNN [K4Q] | 3.95
40 | LARRGSLKNGSMGSPVNQQPKKNN [K4R] | 3.74
41 | LARFGSLKNGSMGSPVNQQPKKNN [K4F] | 5.08
42 | LARHGSLKNGSMGSPVNQQPKKNN [K4H] | 4.68
43 | LARAGSLKNGSMGSPVNQQPKKNN [K4A] | 4.74
44 | LARMGSLKNGSMGSPVNQQPKKNN [K4M] | 4.62
45 | LARNGSLKNGSMGSPVNQQPKKNN [K4N] | 4.25
46 | LARIGSLKNGSMGSPVNQQPKKNN [K4I] | 3.71
47 | LARDGSLKNGSMGSPVNQQPKKNN [K4D] | 4.88
48 | LARVGSLKNGSMGSPVNQQPKKNN [K4V] | 4.42
49 | LARLGSLKNGSMGSPVNQQPKKNN [K4L] | 4.23
50 | LARCGSLKNGSMGSPVNQQPKKNN [K4C] | 4.74

Row | Variant | protein stability index
51 | LAREGSLKNGSMGSPVNQQPKKNN [K4E] | 4.91
52 | LARWGSLKNGSMGSPVNQQPKKNN [K4W] | 4.15
53 | LARSGSLKNGSMGSPVNQQPKKNN [K4S] | 4.68
54 | LARTGSLKNGSMGSPVNQQPKKNN [K4T] | 5
55 | LARPGSLKNGSMGSPVNQQPKKNN [K4P] | 4.92
56 | LARGGSLKNGSMGSPVNQQPKKNN [K4G] | 5.17
57 | LYRKGSLKNGSMGSPVNQQPKKNN [A2Y] | 4.24
58 | LQRKGSLKNGSMGSPVNQQPKKNN [A2Q] | 4.63
59 | LLRKGSLKNGSMGSPVNQQPKKNN [A2L] | 4.58
60 | LVRKGSLKNGSMGSPVNQQPKKNN [A2V] | 4.07
61 | LRRKGSLKNGSMGSPVNQQPKKNN [A2R] | 3.68
62 | LKRKGSLKNGSMGSPVNQQPKKNN [A2K] | 4.13
63 | LCRKGSLKNGSMGSPVNQQPKKNN [A2C] | 4.12
64 | LHRKGSLKNGSMGSPVNQQPKKNN [A2H] | 4.77
65 | LPRKGSLKNGSMGSPVNQQPKKNN [A2P] | 5.21
66 | LWRKGSLKNGSMGSPVNQQPKKNN [A2W] | 4.03
67 | LIRKGSLKNGSMGSPVNQQPKKNN [A2I] | 4.37
68 | LNRKGSLKNGSMGSPVNQQPKKNN [A2N] | 4.59
69 | LMRKGSLKNGSMGSPVNQQPKKNN [A2M] | 4.9
70 | LFRKGSLKNGSMGSPVNQQPKKNN [A2F] | 4.04
71 | LGRKGSLKNGSMGSPVNQQPKKNN [A2G] | 4.76
72 | LERKGSLKNGSMGSPVNQQPKKNN [A2E] | 5.09
73 | LDRKGSLKNGSMGSPVNQQPKKNN [A2D] | 4.87
74 | LTRKGSLKNGSMGSPVNQQPKKNN [A2T] | 4.54
75 | LSRKGSLKNGSMGSPVNQQPKKNN [A2S] | 4.72

Variants of: B2
Experiment: as above
Conditions: c terminus: a fixed tail appended

Row | Variant | protein stability index
76 | HIKLHSGEKPSKCHLCNYACRRRD [F11S] | 1.64
77 | HIKLHSGEKPNKCHLCNYACRRRD [F11N] | 1.77
78 | HIKCHSGEKPFKCHLCNYACRRRD [L4C] | 2.33
79 | HIKYHSGEKPFKCHLCNYACRRRD [L4Y] | 2.52
80 | HIKAHSGEKPFKCHLCNYACRRRD [L4A] | 1.99
81 | HIKLHSGEKPFKCDLCNYACRRRD [H14D] | 2.82
82 | HIKLHSGEAPFKCHLCNYACRRRD [K9A] | 2.11
83 | HIKLHSGELPFKCHLCNYACRRRD [K9L] | 1.86
84 | HIKLHSGEYPFKCHLCNYACRRRD [K9Y] | 1.58
85 | HIKLHSGERPFKCHLCNYACRRRD [K9R] | 1.81
86 | HIKLHSGEPPFKCHLCNYACRRRD [K9P] | 1.9
87 | HIKLHSGEMPFKCHLCNYACRRRD [K9M] | 2.1
88 | HIKLHSGEGPFKCHLCNYACRRRD [K9G] | 2.12
89 | HIKLHSGEVPFKCHLCNYACRRRD [K9V] | 1.43
90 | HIKLHSGEKPFKCHNCNYACRRRD [L15N] | 2.27
91 | HIKLHSGEKPFKCHVCNYACRRRD [L15V] | 1.78
92 | HIKLHSGEKPFKCHHCNYACRRRD [L15H] | 2.14
93 | HIKLHSGEKPFKCHCCNYACRRRD [L15C] | 2.66
94 | HIKLHSGEKPFKSHLCNYACRRRD [C13S] | 2.36
